Changes are numbered by the printed parent chain.

T1: extracellular domain of human DLL3 protein (aa27-466) having an N-terminal FLAG tag (AdipoGen, AG-40B-0151) (human, UniProt Q9NYJ7 27-466)
T1 construct: range 27-466; also called DLL3 ECD protein
T1 sequence (looked up): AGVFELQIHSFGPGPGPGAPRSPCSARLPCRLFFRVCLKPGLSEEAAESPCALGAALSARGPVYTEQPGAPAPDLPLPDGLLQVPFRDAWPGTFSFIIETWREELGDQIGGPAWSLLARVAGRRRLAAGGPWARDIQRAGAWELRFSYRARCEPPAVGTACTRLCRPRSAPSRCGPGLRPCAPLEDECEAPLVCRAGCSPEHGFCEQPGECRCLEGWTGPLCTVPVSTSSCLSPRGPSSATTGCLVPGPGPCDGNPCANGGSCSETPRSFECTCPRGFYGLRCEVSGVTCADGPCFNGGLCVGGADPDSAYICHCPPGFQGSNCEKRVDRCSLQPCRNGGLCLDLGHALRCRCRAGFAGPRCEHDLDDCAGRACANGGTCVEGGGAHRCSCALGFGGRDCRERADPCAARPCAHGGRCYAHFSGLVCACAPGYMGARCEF

B1: AS56704 scFv (scFv, V domains shown)
VH: EVQLVESGGGLVQPGGSLRLSCAASGFNISSSYMHWVRQAPGKGLEWVAYIYPSYGYTSYADSVKGRFTISADTSKNTAYLQMNSLRAEDTAVYYCARGGYYYHGMDYWGQGTLVTVSS
VL: DIQMTQSPSSLSASVGDRVTITCRASQSVSSAVAWYQQKPGKAPKLLIYSASSLYSGVPSRFSGSRSGTDFTLTISSLQPEDFATYYCQQASWSPITFGQGTKVEIK
notes: also called A556704
B2: AS56788 scFv (scFv, V domains shown)
VH: EVQLVESGGGLVQPGGSLRLSCAASGFNISSYSMHWVRQAPGKGLEWVAYISSYYGYTYYADSVKGRFTISADTSKNTAYLQMNSLRAEDTAVYYCARYSYYYGMDYWGQGTLVTVSS
VL: DIQMTQSPSSLSASVGDRVTITCRASQSVSSAVAWYQQKPGKAPKLLIYSASSLYSGVPSRFSGSRSGTDFTLTISSLQPEDFATYYCQQHYAPSLITFGQGTKVEIK
notes: also called A556788
B3: AS64511VH6 HCAb (Fc fusion, not shown: a dimerising Fc or GST)
chain: EVQLVESGGGLVQPGGSLRLSCAASRATYSTNYISWFRQAPGKGREAVATITTGDGETAYADSVKGRFTISRDNAKNSVYLQMNSLRAEDTAMYYCAANLRIGGDWFDGRDFRAWGQGTLVTVSS
notes: humanized sdAb fused with human IgG1 hinge and Fc (humanized HCAb), crude HEK293 medium
B4: AS64511 HCAb (Fc fusion, not shown: a dimerising Fc or GST)
chain: B3 chain with E1Q, L11S, P14A, G44E, S78T, R87K, A88P, L120Q
notes: camel sdAb fused with human IgG1 hinge and Fc (chimeric HCAb), crude HEK293 medium
B5: AS64511VH4 HCAb (Fc fusion, not shown: a dimerising Fc or GST)
chain: B3 chain with R45L, V79L, M93V
notes: as for B3
B6: AS64511VH5 HCAb (Fc fusion, not shown: a dimerising Fc or GST)
chain: B3 chain with R45L
notes: as for B3
B7: AS63997VH4 HCAb (Fc fusion, not shown: a dimerising Fc or GST)
chain: QVQLVESGGGVVQPGGSLRLSCAASFSGYGVSTMAWFRQAPGKGLEGVAAITVGSGNTYYADSVKGRFTISRDNSKNTLYLQMNSLRAEDTAVYYCAVGYLSGGSWDVPGRYNYWGQGTLVTVSS
notes: as for B3
B8: AS63997 HCAb (Fc fusion, not shown: a dimerising Fc or GST)
chain: QVRLVESGGGSVQAGGSLRLSCAGSFSGYGVSTMAWFRQAPGKEREGVAAITVGSGNTYYADSVKGRFTISRDNAKRTVFLQMNSLKPEDTAMYYCAVGYLSGGSWDVPGRYNYWGQGTQVTVSS
notes: as for B4
B9: AS63997VH5 HCAb (Fc fusion, not shown: a dimerising Fc or GST)
chain: B7 chain with L79V, V93M
notes: as for B3
B10: AS63997VH6 HCAb (Fc fusion, not shown: a dimerising Fc or GST)
chain: B7 chain with L45R, L79V, V93M
notes: as for B3
B11: AS64380 HCAb (Fc fusion, not shown: a dimerising Fc or GST)
chain: EVQLVESGGGSVQAGGSLTLSCEASGNTYSSNYMGWFRQAPGKEREEVAVIYTRGGHTYYVDSVRGRFTISQDNAKNTVYLQMNSLKPEDTAMYYCAASSRHRLGLNNPRDYDYWGQGTQVTVSS
notes: as for B4
B12: AS64380VH5 HCAb (Fc fusion, not shown: a dimerising Fc or GST)
chain: EVQLVESGGGLVQPGGSLRLSCAASGNTYSSNYMGWFRQAPGKGLEEVAVIYTRGGHTYYVDSVRGRFTISQDNAKNSLYLQMNSLRAEDTAVYYCAASSRHRLGLNNPRDYDYWGQGTLVTVSS
notes: as for B3
B13: AS64380VH4 HCAb (Fc fusion, not shown: a dimerising Fc or GST)
chain: B12 chain with Q72R
notes: as for B3
B14: AS64380VH6 HCAb (Fc fusion, not shown: a dimerising Fc or GST)
chain: B12 chain with L79V, V93M
notes: as for B3
B15: AS64617 HCAb (Fc fusion, not shown: a dimerising Fc or GST)
chain: QVQLVESGGGSVQAGGSLRLSCAASGYTDRCSMAWYRQAPGKERELVSRISTSGFTNYAASVKGRFTISQDNAKNTVYLQMNSLNPGDTGMYYCAIIVGRTCSLNYWGNGILVTVSS
B16: AS64062 HCAb (Fc fusion, not shown: a dimerising Fc or GST)
chain: QVRLVESGGGSVQVGGSLRLSCAASRSPYSSSRCMGWFRQAPGKEREGVAALYTGGGSTSYADSVKGRFTISQDNAKNTVYLQMNSLKPEDTAMYYCAAVVPRGGSCRLDERGYYHWGQGTQVTVSS
B17: AS64052 HCAb (Fc fusion, not shown: a dimerising Fc or GST)
chain: QVHLMESGGGSVQAGGSLRLSCAASGYTYRSNFMGWFRQAPGKEREGIATIHSGVATTYYADSVKGRFTISQDNAKNTVYLQMNSLKPEDTAMYYCAAGGPPANADRWYPLRPPGYNYWGQGTQVTVSS
B18: AS69443 HCAb (Fc fusion, not shown: a dimerising Fc or GST)
chain: EVQLAESGGGSVQAGGSLRLSCSASGFTFDDSDMAWYRQAPGDGCDLVSTISSDGSTYYADSVKGRFTISQDNAKNTVYLQMHSLKPEDTAVYYCAADFLTGFYYSDSPHPAPCSASDFGYWGQGTQVTVSS
B19: AS63931 HCAb (Fc fusion, not shown: a dimerising Fc or GST)
chain: B8 chain with Q1E, R3Q, V5A, K65T, F80Y, V98A, Y100W, D107H
B20: AS64047 HCAb (Fc fusion, not shown: a dimerising Fc or GST)
chain: QVHLVESGGGSVQAGGSLRLSCAASQYVYRWDLMGWFRQAPGKEREAVAAVYTGDGITYYADSVKGRFSISQDNAKNTVYLQMNSLKPEDTGMYFCAAGFVSGGRWNQSYRYKYWGQGTQVTVSS

The first assay has as its target T1, extracellular domain of human DLL3 …. Description: SPR (Biacore), same procedure as for the HCAbs, human DLL3 as analyte.
In general, koff refers to a measure of how fast the partners let go of each other. Low values mean a long-lived complex, high ones a short-lived complex. Broadly, the kon is the rate constant with which the complex forms. High values mean fast association, low ones slow association. Regarding B1, the dissociation rate constant (koff) stood at 0.000559 s⁻¹ and the kon came to 66000 M⁻¹ s⁻¹.

Usually Kd stands for the free concentration of one partner at which half of the binding sites on the other are occupied at equilibrium, for simple one-to-one binding. A high value points to a looser complex. Consider B2, for which the Kd worked out at 23 nM, the koff stood at 0.003 s⁻¹ and the kon came out at 130000 M⁻¹ s⁻¹.

For another assay the target is unchanged. Description: SPR (Biacore), HCAb captured by anti-human Fc, human DLL3 as analyte, 1:1 fit. The text has this:
(§1) The camel and humanized sdAb sequences were fused with human IgG1 hinge and Fc, resulting the chimeric and humanized HCAb sequences. The DNAs encoding these HCAbs were synthesized and inserted into pTT5 vector. HCAb expression plasmids were used to transfect HEK293 cells. Crude HCAb proteins secreted to the medium were subjected to SPR affinity measurement as follows: briefly, capturing antibody anti-human Fc pAb (GE healthcare) was immobilized on a Biacore™ CM5 chip to approximately 6,000 RU using EDC-activated amine coupling chemistry. HCAb of interest was captured for 300 seconds onto the sensorchip surface. Human DLL3 (AdipoGen, AG-40B-0151) was flowed over the sensorchip surface at a series of increasing concentrations. Association and dissociation phases were monitored. Captured antibody and antigen were removed between cycles using 10 mM Glycine-HCl, pH 2.0 buffer in order to ensure a fresh binding surface for the antigen. The resulting sensorgrams were fit globally using a 1:1 binding model in order to calculate on- and off-rates (ka and kd, respectively), as well as affinities (KD).
On the technique in general: Surface plasmon resonance follows binding to a sensor surface in real time, without labels.
B3 showed an equilibrium dissociation constant (Kd) of 3.4 nM, a dissociation rate constant (koff) of 0.00048 s⁻¹ and a kon of 140000 M⁻¹ s⁻¹.

For the molecule B4, binding was characterised by a dissociation constant (Kd) of 3 nM, the koff came to 0.0004 s⁻¹ and the kon is 130000 M⁻¹ s⁻¹.

For the molecule B5, the Kd is 6 nM, the koff turned out to be 0.00094 s⁻¹ and the on-rate constant (kon) turned out to be 160000 M⁻¹ s⁻¹.

For the molecule B6, the Kd stood at 2.9 nM, the off-rate (koff) came out at 0.00047 s⁻¹ and the kon worked out at 160000 M⁻¹ s⁻¹.

B7 returned a Kd of 21 nM, an off-rate constant (koff) of 0.018 s⁻¹ and a kon of 840000 M⁻¹ s⁻¹.

B8 showed a Kd of 16 nM, a koff of 0.0064 s⁻¹ and a kon of 390000 M⁻¹ s⁻¹.

For B9, the affinity, expressed as Kd, was 37 nM; the koff was found to be 0.021 s⁻¹; the kon was found to be 580000 M⁻¹ s⁻¹.

In turn, B10 registered a Kd of 33 nM, a koff of 0.06 s⁻¹ and a kon of 1.8e+06 M⁻¹ s⁻¹.

B11 displayed a Kd of 8.4 nM, a koff of 0.0056 s⁻¹ and a kon of 670000 M⁻¹ s⁻¹.

For B12, the Kd stood at 26 nM, the koff stood at 0.0015 s⁻¹ and the kon amounted to 59000 M⁻¹ s⁻¹.

With B13, the Kd amounted to 14 nM, the koff amounted to 0.0044 s⁻¹ and the kon stood at 310000 M⁻¹ s⁻¹.

Consider B14, for which the Kd came to 17 nM, the koff was 0.0015 s⁻¹ and the kon was found to be 88000 M⁻¹ s⁻¹.

Another assay has the same target. As to the kind of experiment: SPR (Biacore), captured antibody, human DLL3 as analyte.
From the text: as §1
For the molecule B15, the affinity, expressed as Kd, was 20 nM; the koff was determined as 0.0038 s⁻¹; the kon was found to be 190000 M⁻¹ s⁻¹.

B16 returned a Kd of 6.9 nM, an off-rate (koff) of 0.00071 s⁻¹ and a kon of 100000 M⁻¹ s⁻¹.

B17 had a Kd of 4 nM, a koff of 0.00041 s⁻¹ and an on-rate (kon) of 100000 M⁻¹ s⁻¹.

The molecule B18 yielded a Kd of 0.96 nM, a koff of 9e-05 s⁻¹ and a kon of 94000 M⁻¹ s⁻¹.

With B19, the affinity, expressed as Kd, was 47 nM; the koff turned out to be 0.17 s⁻¹; the kon turned out to be 3.6e+06 M⁻¹ s⁻¹.

Turning to B20, binding was put at a Kd of 6.7 nM, the koff came to 0.00096 s⁻¹ and the kon stood at 140000 M⁻¹ s⁻¹.

For the origin of these results see patent US20220249563A1 (LEGEND BIOTECH IRELAND, published 2022).
